Experimental data: the supplement of paper PMC9112550, “Optimization of the antimicrobial peptide Bac7 by deep mutational scanning” (BMC Biology, 2022)

System: Escherichia coli TOP10
Experiment: shrunken log2 fold change of peptide-encoding DNA abundance (4.5 h post-induction vs induction); higher = less antimicrobial activity (less host growth inhibition)
Conditions: time post-induction: 4.5 h; library: site-saturation at positions 5, 18, 19, 20
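Note: peptides expressed intracellularly from a pBAD plasmid library in pooled LB shake-flask culture, induced with 0.3% L-arabinose, DNA abundance read by NGS, three biological replicates, DESeq2 with apeglm shrinkage.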

Sequence | shrunken log2 fold change
RRIRWRPPRLPRPRPRPQVRPRP | 0.037
RRIRMRPPRLPRPRPRPASMPRP | 0.311
RRIRRRPPRLPRPRPRPNCFPRP | 0.176
RRIRARPPRLPRPRPRPAILPRP | -0.087
RRIRVRPPRLPRPRPRPSKPPRP | -0.242
RRIRARPPRLPRPRPRPFQPPRP | 0.0667
RRIRDRPPRLPRPRPRPHGSPRP | 0.208
RRIRCRPPRLPRPRPRPVFTPRP | -0.211
RRIRQRPPRLPRPRPRPGGGPRP | 0.748
RRIRDRPPRLPRPRPRPIDCPRP | 0.0306
RRIRTRPPRLPRPRPRPECPPRP | 0.151
RRIRKRPPRLPRPRPRPKHMPRP | 0.03
RRIRYRPPRLPRPRPRPQHYPRP | -0.466
RRIRGRPPRLPRPRPRPYPGPRP | -0.0165
RRIRCRPPRLPRPRPRPHLKPRP | -0.322
RRIRERPPRLPRPRPRPLSMPRP | -0.242
RRIRERPPRLPRPRPRPVDWPRP | 0.0136
RRIRIRPPRLPRPRPRPKPKPRP | 0.161
RRIRSRPPRLPRPRPRPPCWPRP | 0.29
RRIRERPPRLPRPRPRPPQGPRP | 0.158
RRIRIRPPRLPRPRPRPCYQPRP | -0.44
RRIRFRPPRLPRPRPRPNPSPRP | -0.125
RRIRIRPPRLPRPRPRPFPCPRP | -0.0282
RRIRQRPPRLPRPRPRPIEMPRP | -0.0847
RRIRIRPPRLPRPRPRPFMDPRP | -1.07

Sequence | shrunken log2 fold change
RRIRLRPPRLPRPRPRPVYEPRP | 0.788
RRIRQRPPRLPRPRPRPSMEPRP | 0.0775
RRIRIRPPRLPRPRPRPEHPPRP | -0.182
RRIRSRPPRLPRPRPRPVDWPRP | 0.306
RRIRRRPPRLPRPRPRPLKPPRP | 0.314
RRIRLRPPRLPRPRPRPSTYPRP | -0.205
RRIRFRPPRLPRPRPRPLVFPRP | -0.204
RRIRQRPPRLPRPRPRPFHWPRP | 0.0728
RRIRERPPRLPRPRPRPCLTPRP | -0.0208
RRIRNRPPRLPRPRPRPLRCPRP | 0.0876
RRIRPRPPRLPRPRPRPTPYPRP | -0.0196
RRIRWRPPRLPRPRPRPIAWPRP | 0.713
RRIRRRPPRLPRPRPRPRHEPRP | 0.148
RRIRQRPPRLPRPRPRPIYRPRP | -0.0223
RRIRGRPPRLPRPRPRPEDRPRP | 0.23
RRIRPRPPRLPRPRPRPPGEPRP | 0.00468
RRIRGRPPRLPRPRPRPYETPRP | 0.16
RRIRFRPPRLPRPRPRPMWYPRP | -0.0081
RRIRLRPPRLPRPRPRPATWPRP | -0.125
RRIRARPPRLPRPRPRPQGIPRP | 0.0477
RRIRERPPRLPRPRPRPNCSPRP | -0.202
RRIRKRPPRLPRPRPRPCMLPRP | -0.245
RRIRWRPPRLPRPRPRPHQRPRP | -0.0218
RRIRARPPRLPRPRPRPDGAPRP | 0.673
RRIRARPPRLPRPRPRPVTKPRP | 0.128

Sequence | shrunken log2 fold change
RRIRSRPPRLPRPRPRPGKIPRP | -0.596
RRIRPRPPRLPRPRPRPYCWPRP | -0.473
RRIRIRPPRLPRPRPRPLKRPRP | -0.0843
RRIRCRPPRLPRPRPRPKRGPRP | 0.27
RRIRDRPPRLPRPRPRPCAGPRP | 0.0969
RRIRIRPPRLPRPRPRPPVKPRP | -0.156
RRIRHRPPRLPRPRPRPYMKPRP | -0.541
RRIRVRPPRLPRPRPRPWHRPRP | -0.145
RRIRKRPPRLPRPRPRPSSSPRP | -0.94
RRIRLRPPRLPRPRPRPNELPRP | 0.0122
RRIRERPPRLPRPRPRPQENPRP | -0.164
RRIRWRPPRLPRPRPRPWVKPRP | -0.00207
RRIRIRPPRLPRPRPRPWGRPRP | -0.239
RRIRVRPPRLPRPRPRPAMEPRP | -0.139
RRIRVRPPRLPRPRPRPKDAPRP | 0.0211
RRIRERPPRLPRPRPRPEGGPRP | 0.361
RRIRPRPPRLPRPRPRPTDDPRP | -0.392
RRIRLRPPRLPRPRPRPWHVPRP | -0.121
RRIRIRPPRLPRPRPRPWCWPRP | -0.146
RRIRRRPPRLPRPRPRPMAYPRP | -0.193
RRIRERPPRLPRPRPRPPHFPRP | 0.568
RRIRMRPPRLPRPRPRPWTFPRP | 0.055
RRIRARPPRLPRPRPRPGPNPRP | 0.66
RRIRMRPPRLPRPRPRPFEEPRP | 0.0197
RRIRWRPPRLPRPRPRPWEWPRP | -0.00895

Sequence | shrunken log2 fold change
RRIRRRPPRLPRPRPRPMAVPRP | -0.165
RRIRTRPPRLPRPRPRPGRDPRP | -0.0751
RRIRWRPPRLPRPRPRPLVNPRP | -0.0798
RRIRPRPPRLPRPRPRPQTNPRP | -0.0828
RRIRCRPPRLPRPRPRPDNWPRP | 0.409
RRIRTRPPRLPRPRPRPDTTPRP | -0.0469
RRIRIRPPRLPRPRPRPDCIPRP | 0.0653
RRIRSRPPRLPRPRPRPFWYPRP | -0.185
RRIRRRPPRLPRPRPRPSTGPRP | 0.112
RRIRFRPPRLPRPRPRPRGGPRP | 0.9
RRIRKRPPRLPRPRPRPKDSPRP | 0.218
RRIRDRPPRLPRPRPRPKAHPRP | 0.0408
RRIRLRPPRLPRPRPRPKWLPRP | 0.139
RRIRRRPPRLPRPRPRPLGWPRP | 1.07
RRIRPRPPRLPRPRPRPKINPRP | -0.32
RRIRWRPPRLPRPRPRPNHSPRP | -0.409
RRIRIRPPRLPRPRPRPLEAPRP | -0.118
RRIRNRPPRLPRPRPRPMGQPRP | 0.128
RRIRDRPPRLPRPRPRPIFEPRP | 0.419
RRIRKRPPRLPRPRPRPVREPRP | 0.817
RRIRTRPPRLPRPRPRPQPTPRP | 0.197
RRIRSRPPRLPRPRPRPNKHPRP | -0.507
RRIRDRPPRLPRPRPRPQLIPRP | 0.0732
RRIRIRPPRLPRPRPRPQWCPRP | 0.307
RRIRTRPPRLPRPRPRPVFHPRP | -0.136

Sequence | shrunken log2 fold change
RRIRARPPRLPRPRPRPYNEPRP | -0.524
RRIRDRPPRLPRPRPRPPKDPRP | 0.314
RRIRRRPPRLPRPRPRPGYSPRP | 1.84
RRIRARPPRLPRPRPRPYSLPRP | -0.187
RRIRTRPPRLPRPRPRPGVQPRP | -0.133
RRIRARPPRLPRPRPRPEVPPRP | 0.162
RRIRCRPPRLPRPRPRPGHAPRP | 0.297
RRIRKRPPRLPRPRPRPHCKPRP | -0.397
RRIRWRPPRLPRPRPRPNCSPRP | -0.162
RRIRPRPPRLPRPRPRPWLIPRP | -0.31
RRIRWRPPRLPRPRPRPDADPRP | 3.34
RRIRDRPPRLPRPRPRPPSWPRP | 0.102
RRIRARPPRLPRPRPRPQGLPRP | 0.208
RRIRVRPPRLPRPRPRPRQMPRP | 0.117
RRIRPRPPRLPRPRPRPILWPRP | 0.0824
RRIRPRPPRLPRPRPRPWEFPRP | -0.0818
RRIRLRPPRLPRPRPRPMSYPRP | -0.25
RRIRVRPPRLPRPRPRPDAVPRP | 0.141
RRIRTRPPRLPRPRPRPVSCPRP | -0.206
RRIRFRPPRLPRPRPRPKLAPRP | 0.559
RRIRCRPPRLPRPRPRPHHKPRP | -0.857
RRIRDRPPRLPRPRPRPAWYPRP | -0.0946
RRIRMRPPRLPRPRPRPETAPRP | 4.06
RRIRMRPPRLPRPRPRPQRHPRP | 0.348
RRIRKRPPRLPRPRPRPTHRPRP | 1.15

Sequence | shrunken log2 fold change
RRIRVRPPRLPRPRPRPACQPRP | 0.168
RRIRQRPPRLPRPRPRPYMLPRP | -0.168
RRIRKRPPRLPRPRPRPGVVPRP | 0.755
RRIRCRPPRLPRPRPRPYFTPRP | -0.774
RRIRERPPRLPRPRPRPIVDPRP | -0.204
RRIRTRPPRLPRPRPRPEGSPRP | 0.161
RRIRKRPPRLPRPRPRPSSFPRP | 0.0223
RRIRCRPPRLPRPRPRPIWQPRP | 0.102
RRIRSRPPRLPRPRPRPCQQPRP | -0.147
RRIRLRPPRLPRPRPRPCPSPRP | -0.00306
RRIRQRPPRLPRPRPRPWYTPRP | -0.132
RRIRYRPPRLPRPRPRPFYYPRP | -1.18
RRIRWRPPRLPRPRPRPAAMPRP | 0.604
RRIRYRPPRLPRPRPRPVLVPRP | -0.507
RRIRQRPPRLPRPRPRPERIPRP | -0.328
RRIRFRPPRLPRPRPRPYVIPRP | -0.303
RRIRQRPPRLPRPRPRPFSLPRP | 0.14
RRIRERPPRLPRPRPRPKHNPRP | -0.587
RRIRPRPPRLPRPRPRPYQNPRP | -0.339
RRIRCRPPRLPRPRPRPVSAPRP | 0.15
RRIRTRPPRLPRPRPRPGGMPRP | -0.117
RRIRERPPRLPRPRPRPHCWPRP | -0.0487
RRIRNRPPRLPRPRPRPEAEPRP | 0.497
RRIRARPPRLPRPRPRPAQIPRP | -0.0241
RRIRKRPPRLPRPRPRPWHKPRP | -0.145
